Results on six variants are retold here after IntAct's records for PubMed 31515488.

First the molecules themselves.
B1: Pseudouridylate synthase PUS7L (Homo sapiens), Q9H0K6 (parent)
chain: MEEDTDYRIRFSSLCFFNDHVGFHGTIKSSPSDFIVIEIDEQGQLVNKTIDEPIFKISEIQLEPNNFPKKPKLDLQNLSLEDGRNQEVHTLIKYTDGDQNHQSGSEKEDTIVDGTSKCEEKADVLSSFLDEKTHELLNNFACDVREKWLSKTELIGLPPEFSIGRILDKNQRASLHSAIRQKFPFLVTVGKNSEIVVKPNLEYKELCHLVSEEEAFDFFKYLDAKKENSKFTFKPDTNKDHRKAVHHFVNKKFGNLVETKSFSKMNCSAGNPNVVVTVRFREKAHKRGKRPLSECQEGKVIYTAFTLRKENLEMFEAIGFLAIKLGVIPSDFSYAGLKDKKAITYQAMVVRKVTPERLKNIEKEIEKKRMNVFNIRSVDDSLRLGQLKGNHFDIVIRNLKKQINDSANLRERIMEAIENVKKKGFVNYYGPQRFGKGRKVHTDQIGLALLKNEMMKAIKLFLTPEDLDDPVNRAKKYFLQTEDAKGTLSLMPEFKVRERALLEALHRFGMTEEGCIQAWFSLPHSMRIFYVHAYTSKIWNEAVSYRLETYGARVVQGDLVCLDEDIDDENFPNSKIHLVTEEEGSANMYAIHQVVLPVLGYNIQYPKNKVGQWYHDILSRDGLQTCRFKVPTLKLNIPGCYRQILKHPCNLSYQLMEDHDIDVKTKGSHIDETALSLLISFDLDASCYATVCLKEIMKHDV
partner: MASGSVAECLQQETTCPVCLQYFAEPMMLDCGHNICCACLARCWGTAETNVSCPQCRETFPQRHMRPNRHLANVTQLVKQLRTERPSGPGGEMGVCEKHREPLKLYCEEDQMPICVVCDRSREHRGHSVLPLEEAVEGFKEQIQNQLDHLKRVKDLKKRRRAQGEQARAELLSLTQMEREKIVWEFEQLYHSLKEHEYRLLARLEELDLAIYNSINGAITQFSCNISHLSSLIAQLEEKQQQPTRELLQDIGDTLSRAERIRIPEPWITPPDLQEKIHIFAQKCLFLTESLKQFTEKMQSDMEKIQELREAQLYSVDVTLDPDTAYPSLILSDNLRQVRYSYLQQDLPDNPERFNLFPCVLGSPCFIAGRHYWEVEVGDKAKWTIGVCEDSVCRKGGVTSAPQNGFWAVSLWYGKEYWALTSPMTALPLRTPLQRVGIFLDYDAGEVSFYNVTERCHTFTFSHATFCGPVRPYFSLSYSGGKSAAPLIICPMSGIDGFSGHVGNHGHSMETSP
B2: Interferon-induced protein with tetratricopeptide repeats 2 (Homo sapiens), P09913 (parent)
chain: MSENNKNSLESSLRQLKCHFTWNLMEGENSLDDFEDKVFYRTEFQNREFKATMCNLLAYLKHLKGQNEAALECLRKAEELIQQEHADQAEIRSLVTWGNYAWVYYHMGRLSDVQIYVDKVKHVCEKFSSPYRIESPELDCEEGWTRLKCGGNQNERAKVCFEKALEKKPKNPEFTSGLAIASYRLDNWPPSQNAIDPLRQAIRLNPDNQYLKVLLALKLHKMREEGEEEGEGEKLVEEALEKAPGVTDVLRSAAKFYRRKDEPDKAIELLKKALEYIPNNAYLHCQIGCCYRAKVFQVMNLRENGMYGKRKLLELIGHAVAHLKKADEANDNLFRVCSILASLHALADQYEDAEYYFQKEFSKELTPVAKQLLHLRYGNFQLYQMKCEDKAIHHFIEGVKINQKSREKEKMKDKLQKIAKMRLSKNGADSEALHVLAFLQELNEKMQQADEDSERGLESGSLIPSASSWNGE
partner: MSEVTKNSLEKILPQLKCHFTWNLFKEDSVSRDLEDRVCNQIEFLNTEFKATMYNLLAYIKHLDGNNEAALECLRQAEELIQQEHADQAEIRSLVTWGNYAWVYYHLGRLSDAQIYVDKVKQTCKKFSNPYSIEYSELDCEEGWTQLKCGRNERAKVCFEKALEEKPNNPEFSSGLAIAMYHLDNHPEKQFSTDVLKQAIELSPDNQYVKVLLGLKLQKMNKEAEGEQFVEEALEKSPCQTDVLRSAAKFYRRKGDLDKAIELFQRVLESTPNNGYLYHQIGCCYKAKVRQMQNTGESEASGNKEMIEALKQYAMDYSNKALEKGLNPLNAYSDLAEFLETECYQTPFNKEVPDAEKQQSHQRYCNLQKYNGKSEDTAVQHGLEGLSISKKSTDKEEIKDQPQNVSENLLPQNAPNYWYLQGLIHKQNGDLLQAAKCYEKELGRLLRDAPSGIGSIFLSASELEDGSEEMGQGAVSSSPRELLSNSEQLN
B3: Keratin-associated protein 26-1 (Homo sapiens), Q6PEX3 (parent)
chain: MSCPNYCSGNSNSGSLRTSRHIPLTSIDLCPTSVSCGDVLYLPTSSQDHTWVTDNCQETCGEPTSCQPVHCETGNLETSCGSSTAYYVPRPCQGSSFLPASFFSSSCLPVSCRPQRYVSSGCRPLRPLLNSYQPIGDCVPNAYRPQFCLSKSCQPQNLLTSGCQPSSCLAYRPQSLHVVSSSLRPLGPLFSGCQPLTHVFSTCRPSCSGL
partner: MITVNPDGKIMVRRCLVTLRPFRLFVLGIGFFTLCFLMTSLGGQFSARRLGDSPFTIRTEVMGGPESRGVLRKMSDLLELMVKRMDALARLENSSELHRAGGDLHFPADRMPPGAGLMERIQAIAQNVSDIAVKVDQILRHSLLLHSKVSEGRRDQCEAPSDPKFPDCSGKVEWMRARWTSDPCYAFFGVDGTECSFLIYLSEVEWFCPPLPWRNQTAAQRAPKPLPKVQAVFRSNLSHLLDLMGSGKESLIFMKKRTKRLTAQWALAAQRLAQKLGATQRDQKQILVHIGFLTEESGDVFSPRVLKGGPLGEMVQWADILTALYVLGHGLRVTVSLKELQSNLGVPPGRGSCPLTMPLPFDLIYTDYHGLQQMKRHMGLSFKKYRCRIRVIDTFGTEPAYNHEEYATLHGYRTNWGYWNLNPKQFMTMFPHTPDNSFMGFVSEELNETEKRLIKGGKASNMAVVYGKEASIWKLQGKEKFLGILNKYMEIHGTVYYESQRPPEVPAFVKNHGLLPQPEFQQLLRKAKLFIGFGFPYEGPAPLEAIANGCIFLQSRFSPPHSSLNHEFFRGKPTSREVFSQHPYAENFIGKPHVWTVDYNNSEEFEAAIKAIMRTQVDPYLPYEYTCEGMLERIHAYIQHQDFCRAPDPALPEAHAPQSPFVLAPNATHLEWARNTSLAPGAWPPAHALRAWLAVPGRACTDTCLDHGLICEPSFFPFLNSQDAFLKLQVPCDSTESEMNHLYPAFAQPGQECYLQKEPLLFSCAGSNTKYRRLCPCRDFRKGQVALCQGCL
B4: Isoform 1 of Mothers against decapentaplegic homolog 3 (Homo sapiens), P84022-1 (parent)
chain: MSSILPFTPPIVKRLLGWKKGEQNGQEEKWCEKAVKSLVKKLKKTGQLDELEKAITTQNVNTKCITIPRSLDGRLQVSHRKGLPHVIYCRLWRWPDLHSHHELRAMELCEFAFNMKKDEVCVNPYHYQRVETPVLPPVLVPRHTEIPAEFPPLDDYSHSIPENTNFPAGIEPQSNIPETPPPGYLSEDGETSDHQMNHSMDAGSPNLSPNPMSPAHNNLDLQPVTYCEPAFWCSISYYELNQRVGETFHASQPSMTVDGFTDPSNSERFCLGLLSNVNRNAAVELTRRHIGRGVRLYYIGGEVFAECLSDSAIFVQSPNCNQRYGWHPATVCKIPPGCNLKIFNNQEFAALLAQSVNQGFEAVYQLTRMCTIRMSFVKGWGAEYRRQTVTSTPCWIELHLNGPLQWLDKVLTQMGSPSIRCSSVS
partner: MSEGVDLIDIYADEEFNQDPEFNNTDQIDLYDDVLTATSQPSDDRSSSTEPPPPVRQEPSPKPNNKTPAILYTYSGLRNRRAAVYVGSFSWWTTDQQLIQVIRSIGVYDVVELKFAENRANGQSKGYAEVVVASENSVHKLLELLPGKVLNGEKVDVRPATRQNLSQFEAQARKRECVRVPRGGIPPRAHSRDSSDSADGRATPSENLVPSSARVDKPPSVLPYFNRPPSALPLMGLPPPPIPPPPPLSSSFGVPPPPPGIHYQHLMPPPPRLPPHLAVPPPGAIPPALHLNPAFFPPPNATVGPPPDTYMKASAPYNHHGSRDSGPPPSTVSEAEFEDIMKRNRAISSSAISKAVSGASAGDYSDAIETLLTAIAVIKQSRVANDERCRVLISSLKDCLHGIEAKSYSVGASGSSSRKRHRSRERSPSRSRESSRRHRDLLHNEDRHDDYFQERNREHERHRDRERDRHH
B5: Protein mab-21-like 3 (Homo sapiens), Q8N8X9 (parent)
chain: MKYLTVGDLEDCLLNKVDLRRQQISQAVEEVQKVVHHLTTNISNQDIRFQAVPYSDTYNENIKVLAPSQFLVTVPIKGLAGYREAREQHWRYYTLQGTRLPCPLRDPEGLQQWLEVEQFMKSLWQWHETDVNIDGDIVPAKVLLVFRKLVENAVRTCHLSGKVSLLGNRSAVWVAVETSAYQVELELVPAVEIPTTWSKKARWPRCLQRWPSQERVECIKSFGFNLLACSNYHWQLSFLRAEQVLLEQLDEDGGCRRKCFQVMRHLKEDIWCPGNRPVITSHHLQTVLFWTCEKYPHFKDWQVFSKAFLRLVRKLHKCVSQHFLKHYFVRNSNLFQCTNPTELDTVAQKLATFLKNPQIGPP
partner: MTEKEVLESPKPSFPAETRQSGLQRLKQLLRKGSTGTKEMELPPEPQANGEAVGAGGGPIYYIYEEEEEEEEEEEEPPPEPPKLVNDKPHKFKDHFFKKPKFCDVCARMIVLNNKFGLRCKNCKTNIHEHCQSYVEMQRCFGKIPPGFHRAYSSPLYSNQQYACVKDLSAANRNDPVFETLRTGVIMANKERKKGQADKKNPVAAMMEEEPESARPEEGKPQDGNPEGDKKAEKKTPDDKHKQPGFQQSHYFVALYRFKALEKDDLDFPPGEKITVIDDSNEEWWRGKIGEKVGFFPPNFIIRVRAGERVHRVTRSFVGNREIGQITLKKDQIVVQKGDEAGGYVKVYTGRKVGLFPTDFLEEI

Variants of B1 are the subject of one assay. The note with it: with tri27_human TRIM27, P14373.
For I50V, the “effect of a mutation on the interaction” value is recorded as “with no effect”.
Still for that read-out and setting: the entry for R527C is “disrupting interaction strength”.

The variants in the next assay derive from B2. As to conditions: with ifit3_human IFIT3, O14879.
As for E79A, the “effect of a mutation on the interaction” value is listed as “disrupting interaction strength”.

The variants in a further assay derive from B3. As to conditions: with mgt5b_human MGAT5B.
As for S26Y, the “effect of a mutation on the interaction” value was “with no effect”.

The variants in the next assay derive from B4. The note with it: with cpsf7_human CPSF7, Q8N684.
For P393L, the “effect of a mutation on the interaction” value was “disrupting interaction strength”.

A further assay covers variants of B5. As to conditions: with stac3_human STAC3, Q96MF2.
For T338A, the “effect of a mutation on the interaction” value was “with no effect”.
